Results taken from US10684273B2, “Use of phosphatidylinositol phosphate-binding material for apoptosis detection” (GIL MEDICAL CENTER, priority 2015, dated 2020).
Entries after “also recorded” stand apart in the source; their conditions may differ. Blank lines part the entries; values can stand above or below the molecule they belong to.

Legend:
[1] = system: PtdIns(3,4,5)P3 externalized on the surface of apoptotic HeLa and CHO cells; assay: binding of recombinant Akt protein to apoptotic cells (confocal microscopy); type: cell-based; conditions: through PH domain; 2 μg protein
Method: First, HeLa and CHO cells were treated with 4 μM camptothecin for 6 hours to induce apoptosis, fixed with formalin (10% neutral buffered) for 5 minutes, and washed twice with PBS. Then, the cells were treated with the serum-free protein blocking solution (Dako), and cultured along with 2 μg of recombinant Akt proteins (Millipore) for 30 minutes. Then, the HeLa and CHO cells, which were bound to Akt proteins, were treated with rabbit anti-CD14 antibody (HPA00212; 1:200, Sigma-Aldrich USA) or the anti-Akt pleckstrin homology (PH) domain antibody of monoclonal mouse (05-591, 1:100, Millipore) for 30 minutes, and treated with FITC-labeled secondary antibody for 30 minutes. Then, the resultant was counterstained with DAPI to visualize nuclei, and counterstained with propidium iodide to distinguish apoptotic cells.
(§1) Then, the cells were placed on a microscope and photographed by the Zeiss LSM 710 laser-scanning confocal microscope (Carl Zeiss) with appropriate excitation using a release filter set. The images were photographed using 40× oil immersion lens. The fluorescence intensity of the unprocessed original images was quantified using ZEN 2010 software (Carl Zeiss).

[2] = system: Thioglycollate-elicited peritoneal macrophages (Thio-pMacs); assay: IC-InsP6 absorption by peritoneal macrophages (Prussian blue staining); type: cell-based, C57BL/6 mouse; conditions: compared to non-activated Thio-pMacs; 0 mM to 0.5 mM, 4 hours; concentration-dependent
Method: Thioglycollate-elicited peritoneal macrophages (Thio-pMacs) in a C57BL/6 mouse were obtained. Specifically, 2 mL of 3% Brewer thioglycollate medium (Difco, Detroit, Mich., USA) was intraperitoneally injected the mouse, and 3 to 5 days thereafter, the peritoneum of the mouse was washed with cold PBS to recover peritoneal macrophages. The cells were centrifuged at 1,500 rpm for 5 minutes. The resulting pellet was washed 3 times with PBS, resuspended in DMEM medium containing 10% FBS (Gibco), and cultured on the cover glass in a 6-well plate (Nunc, Fisher Scientific) at a density of 1×10^5 cells/mL. The cells were cultured by adhesion culture, and the slides were washed to remove the suspending cells. Then, the adhered Thio-pMacs cells were cultured according to the presence of LPS (0.5 μg/mL) for 6 hours. LPS induces the activation of Thio-pMacs.
After cultivation, the cells were treated with IC-InsP6 (0 mM to 0.5 mM) for 4 hours. The cells were washed with PBS to remove free IC-InsP6, fixed with formalin (10% neutral buffered) for 5 minutes, and stained as described below for the confirmation of intracellular iron absorption. Specifically, the cover glass was placed in a staining solution (5% potassium ferrocyanide and 12% HCl) for 1 hour, washed 3 times with distilled water, and stained with Prussian blue. […]

RAW264.7 macrophages = assay: IC-InsP6 absorption by RAW264.7 macrophages; type: cell-based; conditions: treatment concentration-dependent
liver Kupffer cells = assay: phagocytosis of IC-InsP6 by liver Kupffer cells after intra-arterial injection; type: in vivo, C57BL/6 mice
apoptotic CHO cells = assay: detection of apoptosis by recombinant PH domain and annexin V (confocal microscopy); type: cell-based; conditions: 4 μM camptothecin 6 hours
Method: (§2) First, apoptosis was induced in CHO cells by treating them with 4 μM camptothecin for 6 hours, and the cells were fixed with formalin (10% neutral buffered) for 5 minutes and washed twice with PBS. Then, the cells were treated with a serum-free protein blocking solution (DAKO) along with the recombinant PH domain prepared in Example 5-1 for 30 minutes. Then, the cells were treated with the anti-Akt PH domain antibody of monoclonal mouse (05-591, 1:100, Millipore) and then treated with FITC-labeled secondary antibody for 30 minutes. Then, the cells were washed with PBS, fixed with formalin (10% neutral buffered) for 5 minutes, and stained. The cells were counterstained with propidium iodide to distinguish apoptotic cells.
(§3) The recombinant annexin V prepared in Example 5-1 was subjected to an experiment in the same manner and analyzed by FACS.
as §1

apoptotic cells = assay: flow cytometer analysis of apoptosis; type: cell-based; conditions: FIG. 14
Method: as §2, §3

[3] = protein-lipid overlay assay and immunoblotting (PIP strips or PIP arrays); type: binding; conditions: mixed with 5 μM CaCl2
Method: (§4) To confirm whether the inositol phosphpate groups of various phosphatidylinositol phosphates directly bind to macrophage CD14 receptors, a protein-lipid overlay assay was performed using the full-length recombinant human CD14 proteins and variant CD14 proteins prepared in Example 2-2. PIP strips or PIP arrays were purchased from Echelon Biosciences.
(§5) After culturing a cell membrane for 15 minutes, non-specific bindings to the cell membrane was blocked using TBS-T (50 mM Tris, 0.15 M NaCl, and 0.05% Tween-20, pH 7.4, EDTA-free protease inhibitor cocktail; Roche, Germany) containing 3% BSA. After the blocking, the cell membrane was incubated along with each of the purified recombinant CD14 proteins (100 ρmol) for 30 minutes, washed 3 times with PBS, incubated again with anti-CD14 (rabbit, HPA002127; Sigma-Aldrich), and incubated with horseradish peroxidase (HRP)-labeled secondary antibody (goat; HAF007; R&D Systems) for 30 minutes. The binding was detected using the ImageQuant LAS 4000 (Fujifilm, Japan). As described in Toda et al. (Mol Cell Biol 32, 118, 2012), PIP-affinity bead pulldowns were performed.
To confirm whether the PKCβ1 C2 domain-Myc protein and the inositol phosphpate group in various phosphatidylinositol phosphates directly bind to each other, protein-lipid overlay assay and immunoblotting were performed in the same manner as in Example 2-3. The PIP strip or PIP array was purchased from Echelon Biosciences.
Annexin V, which is known to specifically bind to phosphatidylserine, was subjected to protein-lipid overlay assay and immunoblotting in the same manner as in Example 2-3.

[4] = protein-lipid overlay assay, other lipids on the strip; type: binding; conditions: mixed with 5 μM CaCl2
Method: as §4, §5
To confirm whether the PKCβ1 C2 domain-Myc protein and the inositol phosphpate group in various phosphatidylinositol phosphates directly bind to each other, protein-lipid overlay assay and immunoblotting were performed in the same manner as in Example 2-3. […]

Molecule: recombinant Akt protein: recombinant Akt proteins (Millipore), PH domain-containing protein
binding to PtdIns(3,4,5)P3 externalized on the surface of apoptotic cells [1]: binds; also recorded: can bind

Molecule: Iron-Calcium-InsP6 (phytate) [IC-InsP6]
phagocytosis of IC-InsP6 by LPS-activated Thio-pMacs [2]: effective phagocytosis
phagocytosis of IC-InsP6 by RAW264.7 macrophages (RAW264.7 macrophages): effective phagocytosis
phagocytosis of IC-InsP6 by CD14-defective Kupffer cells (liver Kupffer cells; CD14-defective mice, intra-arterial injection): hardly phagocytized
phagocytosis of IC-InsP6 by wild-type Kupffer cells (liver Kupffer cells; wild-type mice): effectively phagocytized

B1: PH domain: human Akt PH domain (1st to 144th amino acids) cloned into pET28a, expressed in E. coli, 21 kDa (protein, UniProt P31749 1-144, looked up, fragment)
chain: MSDVAIVKEGWLHKRGEYIKTWRPRYFLLKNDGTFIGYKERPQDVDQREAPLNNFSVAQCQLMKTERPRPNTFIIRCLQWTTVIERTFHVETPEEREEWTTAIQTVADGLKKQEEEEMDFRSGSPSDNSGAEEMEVSLAKPKHR
modifications: PH domain
notes: human Akt PH domain (1st to 144th amino acids) cloned into pET28a, expressed in E. coli, 21 kDa
binding on the surfaces of apoptotic cells / detection of apoptosis (apoptotic CHO cells; FIG. 13): bind at different locations from each other
binding on the surfaces of apoptotic cells / detection of apoptosis (apoptotic CHO cells; FIG. 13, listed as recombinant PH domain): can detect apoptosis
detection in apoptotic cells by flow cytometer (apoptotic cells): appeared

binding to PI(3,5)P2, PI(4,5)P2, and PI(3,4,5)P3 [3]: strongest bindings
binding to PI(5)P, PI(3)P, PI(4)P and PI(3,4)P2 [3]: also shown to bind
binding to various kinds of phosphatidylinositol phosphates ([3]; 100 ρmol): shown to bind
binding to phosphatidylserine [4]: did not bind
B2: annexin V: human annexin V (1st to 319th amino acids) cloned into pET28a, expressed in E. coli, 37 kDa (protein, UniProt P08758 1-319, looked up, fragment)
chain: MAQVLRGTVTDFPGFDERADAETLRKAMKGLGTDEESILTLLTSRSNAQRQEISAAFKTLFGRDLLDDLKSELTGKFEKLIVALMKPSRLYDAYELKHALKGAGTNEKVLTEIIASRTPEELRAIKQVYEEEYGSSLEDDVVGDTSGYYQRMLVVLLQANRDPDAGIDEAQVEQDAQALFQAGELKWGTDEEKFITIFGTRSVSHLRKVFDKYMTISGFQIEETIDRETSGNLEQLLLAVVKSIRSIPAYLAETLYYAMKGAGTDDHTLIRVMVSRSEIDLFNIRKEFRKNFATSLYSMIKGDTSGDYKKALLLLCGED
binding on the surfaces of apoptotic cells / detection of apoptosis (apoptotic CHO cells; FIG. 13): bind at different locations from each other
detection in apoptotic cells by flow cytometer (apoptotic cells): simultaneously detected
